According to publication PMC3141246 (Nucleic Acids Research, 2011):

Target: the molecule itself
Test: native gel or EMSA

B1: Rpp20, protein subunit of human nuclear RNase P (natural protein, UniProt O75817 1-140, looked up)
chain: MAENREPRGAVEAELDPVEYTLRKRLPSRLPRRPNDIYVNMKTDFKAQLARCQKLLDGGARGQNACSEIYIHGLGLAINRAINIALQLQAGSFGSLQVAANTSTVELVDELEPETDTREPLTRIRNNSAIHIRVFRVTPK
B1: binds.
